Source: a protein production outcome set (Wang et al. 2014)

experiment: label from the status in PepcDB records
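Note: failed if final PepcDB status was selected cloned or expressed and not failed if soluble or beyond.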

Row | Sequence | protein production
1 | MSNYNVSLVGPAPWGFRLQGGKDFNMPLTISSLKDGGKASQAHVRIGDVVLSIDGISAQGMTHLEAQNKIKACTGSLNMTLQRASAAAKSEPVAVQKGEPKEVVKPVPITSPAVSKVTSTTNMAYNKVPRPFGSVSSPKVTSIPSPSSAFTPAHAATSSHASPPPVAAVTPPPLSASGLHASANPSAAQCSSPPNTGKPAVHVPRQPTVTSVCSESAQELAEGQRRGSQGDIKQQNGPPRKHIVERNTEFYHIPTHSDASKKRLIEDTEDWRPRTGTTQSRSFRILAQITGTEHLKESENDNAKKANSTPEPSQQSASPLSAAESLESPGSNRPVVAGLRSAAAFKPVGSTSVKSPSWQRPNQAAPSTGRISNSASSSGTGAPMKPAVGPPQPSDQDTLVQRAEHIPAGKRTPMCAHCNQAIRGPFLVALGKSWHPEEFNCAHCKNTMAYIGFVEEKGALYCELCYEKFFAPECGRCQRKILGEVINALKQTWHVSCFVCVACGKPIRNNVFHLEDGEPYCETDYYALFGTICRGCEFPIEAGDMFLEALGSTWHDTCFVCSVCCESLEGQTFFSKKDKPLCKKHAHSVNF | failed
2 | MSPEGAERYDRNCDHQFQKGHVLIEMMGIKKGDFVLDVGCGTGRQALNVAGIIGPAGKLTGIDPSSYRIELARKKFEGDSSGNVRFLVRQAENLQDIPDNSINHAYFCSSFHWVDDKKTALNEIFRVLRPGGKVGMTTLDRNSPNTMKALIDPILAKFGIERRHEWHRGMKKVTAPELHDLLSGAGFTSISIEPRAVPRKYNSPEEFLQHPEEKDSSRGILRDISNETLEKLRQEITEEFRKAQTPEDIGFGNITLFAIATKAQEGLEHHHHHH | failed
3 | MSPENKICMEQSEDGDLDAGDELFEEVDGDGKGEIFANRELLNIDHVPDENRIVGRDEHITELANEIGPAVTGSPPNSVILYGKTGSGKSLVANHVMERARREAQRRDRRLATVTVDCAQSRGEADTVQTIADKINRSTSGVTVPTRGISTNEYYNRLWQILGTEYDAALITLDEVDRLSDDDILMILSRAREAGKVDVPIGIISISNKVNFREQMTERVKSSLGHNEMIFDPYDGEQLRQILENRKDAFQEDILMPGVIPKTAALAAQRHGDARKAIRLLRHAGDYAKTNNIGTVKESHLELAQEQAEVERLKELISGLPPHSKYVLYALANLTDGTTNSNDWFRTTVIYDVYEEVCKTEATDTLTTDTIRGLLNELAFLEITESNQEHGGMGKGTYKEHRLLWDPNVVFKMNPGSAQVDTDR | failed
4 | MSPIDEFTYIKQNKIVYDSNSLIQLYFPIMGSDAMALYDYFVHFFDDGIRRHKFSEVLNHLQYGMPRFQDALVMLTALDLLTVYQATGTYLVKLNQAMSNELFLSNPIYRRLLEKRIGEVAVAELDMKIPKNARDISKKFTDVFSDLGQPKQEVNRSKNVFDLESFKRLMMRDGLRFNNEKDDVLGIYSVSELYHLNWYDTYQLAKQTAINGMIAPQRMKVQQNEGQHIKDNQSFTNNEKVILRESKNDSALVFLEKIKRSRKAVTTSGEKTLLEDLAKMNFLDEVINVMVLYTLNKTKSANLNKAYIMKVANDFAFQNVMTAEDAVLKIRDFSDQKVRTKTETKKKQSNVPEWSNPDYKDEVSPEKEIELEQFKTDALKRLERLGKD | not failed
5 | MSPIHVRAHPGDVAERVLLPGDPGRAEWIAKTFLQNPRRYNDHRGLWGYTGLYKGVPVSVQTTGMGTPSAAIVVEELVRLGARVLVRVGTAGAASSDLAPGELIVAQGAVPLDGTTRQYLEGRPYAPVPDPEVFRALWRRAEALGYPHRVGLVASEDAFYATTPEEARAWARYGVLAFEMEASALFLLGRMRGVRTGAILAVSNRIGDPELAPPEVLQEGVRRMVEVALEAVLEV | not failed
6 | MSPIVSVPDITAPVENVPAILPKVVPGELIVNKPTGGDSDELFQYLVDILASPVYDVAIESPLELAEKLSDRLGVNFYIKREDKQRVFSFKLRGAYNMMSNLSREELDKGVITASAGNHAQGVALAGQRLNCVAKIVMPTTTPQIKIDAVRALGGDVVLYGKTFDEAQTHALELSEKDGLKYIPPFDDPGVIKGQGTIGTEINRQLKDIHAVFIPVGGGGLIAGVATFFKQIAPNTKIIGVEPYGAASMTLSLHEGHRVKLSNVDTFADGVAVALVGEYTFAKCQELIDGMVLVANDGISAAIKDVYDEGRNILETSGAVAIAGAAAYCEFYKIKNENIVAIASGANMDFSKLHKVTELAGLGSGK | not failed
7 | MSPSDSSGDSDDPARSRAAVRRTYEDIGDHFSKTREYAWPEVESFVDESGSVGTALDAGCGNGRHAELLAGVADRVVGLDASRALLRAATDRVGDSVALLQGDATRLPLAAGAVDLAVYVATLHHLPSQTARRASLDELARVLAPGARALVSAWSTAHDHFDADPDADEGFDTTVDWTLPGGETVPRFYHIYAPAEFERDVADSDLRLVSMELSSGNCYGVVEPEGKRT | failed
8 | MSQEDITGKDRLQELIGADYRLQWIIGHGGMSTVWLADDVVNDREVAIKVLRPEFSDNQEFLNRFRNEAQAAENIDSEHVVATYDYREVPDPAGHTFCFIVMEFVRGESLADLLEREGRLPEDLALDVMEQAAHGLSVIHRMDMVHRDIKPGNMLITANGIVKITDFGIAKAAAAVPLTRTGMVVGTAQYVSPEQAQGKEVTAASDIYSLGVVGYEMMAGRRPFTGDSSVSVAIAHINQAPPQMPTSISAQTRELIGIALRKDPGRRFPDGNEMALAVSAVRLGKRPPQPRTSAMMAQAEAPSPSESTAMLGRVARPATITQEAAPKRGSGIGIGLFIAALLAVIIGAVIYAGTTGILFNDTPEETTTPETITETYTPTVEETTSQWVPPTPPTRSTFTEPETTSHRPTTSEESTSEEPTTEAPTSSRTVPQIPTSTPRTSASVPVETNAPADDLIDAVNGLLDVGGAQ | failed
9 | MSQERTDGDLRNTGLSLKHDREWDYELDRIVEAVEERDAEKVGLQFPEGLKRRGPAVADDLREELPDDVTVLLSGQPCYGACDLDTYMMRRTDVFVHFGHSPMKESDKIIYVPLFSNVDVFPIMEQAREEQLADPEDDPDVGLVTTAQHMNKFDEMREWLEERGYTVHTRRGDERLTHEGQVLGCNYASADVDADQMLYVGGGKFHPLGLAMEHPEKHVVIADPVNNVVTVADTEKFMKQRYGAVHRAMDAESWGVIFCTKIGQGRWDQAEEIVENNENAYLITMDEVTPDRLTNFGMDAYVNTGCPRITTDDGPQFKKPMLTPGEYEIAIGEKPLDSLEFDTFHGTWLEHHHHHH | not failed
10 | MSQFDRIHLVVLDSVGIGAAPDANDFVNAGVPDGASDTLGHISKTVGLAVPNMAKIGLGNIPRPQALKTVPAEENPSGYATKLQEVSLGKDTMTGHWEIMGLNITEPFDTFWNGFPEDIITKIEDFSGRKVIREANKPYSGTAVIDDFGPRQMETGELIIYTSADPVLQIAAHEDIIPLEELYRICEYARSITMERPALLGRIIARPYVGEPGNFTRTANRHDYAVSPFEDTVLNKLDQAGIDTYAVGKINDIFNGSGINHDMGHNKSNSHGIDTLIKTMGLSEFEKGFSFTNLVDFDALYGHRRDPHGYRDCLHEFDERLPEIISAMRDKDLLLITADHGNDPTYAGTDHTREYIPLLAYSPSFTGNGLIPVGHFADISATVADNFGVDTAMIGESFLQDLV | failed
11 | MSQIEAVFFDCDGTLVDSEVICSRAYVTMFRQFGITLELTEVFRRFKGVKLYEIIDTISKEHGVALAKAELEPVYRAEVARLFDTELEAIAGANTLLESIKTPMCVVSNGPVSKMQHSLGKLGMLHHFPDLLFSGYDIQRWKPDPALMLHAANAMKVNVEKCILVDDSSAGAQSGIAAGMEVFYFCADPHNKPIDHPNVTTFTDLAQLPGLWKARGWEI | not failed
12 | MSQIWFERILRWRKKAQRFLQGRYARFDELNRTLLLTSVVLALINIFTGYLWVRLLILITVAYVYYRFFSKHIHPRLNENQWFILRKQRLMQKVHAFRKRHMTQKEYRYFKCPKCQQSLRAPKGRGTIKVTCSNCQNQFIKKV | failed
13 | MSQMSPGQARVVDPILSTHARGYRQSTLIGKKLFPVAPVAQYGGKILTFGKEAFRLYNTKRAPGANTKRIDFGYEGDPYSIVPSALEAKVPRELMRDASQVPGIDLGARSVNTVLRIMALAHEHECAQIALDPAKYNADHKVKLVGSARWTSPDSDPTKDVETAKEAIADSIGMEPNRLMLSRKALSACKYHPKLIERVKYTRAESITIDMLKALWEVEEIVVGTARVATGANDSFGDVWGPDVWLGYVSDNPDPSVEEPSFGYTYQIEGHPLVEVPYWDNNAKSWIYGVSDDNTPALSGMLAGYLIEDAGLPAA | not failed
14 | MSQPNFLLFITDQHRADHLGAYGNSQIRTPALDALARRGWLAERFYVASPICMPNRATLMTGRMPSAHGARHNGIPLSQRATTFVERLRQAGYGTALVGKSHLQNMTGNGPVWPRPQDPPAEGEAWAPEPGDYDQEWGPLWREDPAHDLATPFYGFSQVDLAVDHGDRVWGHYWRWLQREHPEVAAQAGPDHALPAPGFELVRAGQAWRTRVPESCSTTAYLGRRTMQALDGYAQRGQPFFIQCSFPDPHHPFTPPGKYWDMYRPEDVELPASFHASAAAGRQPPPHVQWMYAQRDSGRAVKHTPAMFACTEREAREAIALNYGSISHIDHTVGEVLAHLQRLGLADNTVVIFTSDHGDYLGDHQLLWKGPVHYQSVIRTPFIWADPAGAQGARSDALCSTTDIAPTILARAGLLPYNGIQGADLGALMRGEQAAPREAVLIEEEGQRVMFGFDKRVRMRTLQTGRYRMSVYHGVSWGELYDLREDPLELRNLWDEPGSAALRQDLLFQLAQNLIGHGETSPHPTALA | failed
15 | MSQPSALPAADSLAALHPGFKSSALVWLGVMVALWGFSWPVMKICVGLAPPLWLAAIRFTSSGLCLFAFLACRGELRLPPRADWPIVASVGGLQMMAFTGLGLVAMQYTDAGRAALLAYTTPLWAVVTAWIAFGQRPTAAQGVALCVGLSGVAVICSPADMDWGDSTVLLGNALLLLSAMCWSFVILHVRRHRFTARPIDLAPWQMLLAALPLIVIAASVDGSPLTIAWTPELIGFLIYFGPIATSACFVISSEYGRRVSAFAMSNITLGVPVIGMLSSIFLLGERVTVPLIIGLTLIVSGVALAALAVNRKAAAGRADTALRSQAGKANWPTA | failed
16 | MSQPVAFVTGCSSGIGRALADAFQRAGYRVWASARKEDDVRALAEAGFQAVQLDVNDAAALARLAEELGVEAAGLDVLVNNAGYGAMGPLLDGGVEAMRRQFETNVFAVVGVTRALFPLLRRKSGLVVNVGSVSGVLVTPFAGAYCASKAAVHALSDALRLELAPFGVEVLEVQPGAIASNFGASASREMDSVVDERSPWWPLRRQIQARAAASQDNPTSAEDFARQLLAAVQRRPRPPLVRIGNGSRALPALARWLPRGLLERLLKKRFGLDTRL | failed
17 | MSQQKSDFADDADIDESLDELASEETIEETVENLEANGFEVIVVNSADDALAELQSLIPAEASVMNGHSTTLEEIGFDEYLSDGDHGWESLPEEIWSIDDDAKRQAARRESQTADYFLGGINGISQTGELVAADRSGSRIGAYPFAASNVVIVSGVNKIVPTLEDALDRLETVAYPLENERAKEAYGVDSAIAKQLILRQELEEGRTTVVLIREHLGYLEHHHHHH | not failed
18 | MSQQPESDRTEGDLRNTGMELKHERTWDYELDRIVDAVEERDAMKVGLQFPEGLKRRAGRVADDLRRLLPDETTVLLSGQPCYGACDLDTYMMRRTDVFVHFGHSPMKESDKIIYVPLFSNVEVTPIMEEARAELAAPEEDDAVGLVTTAQHMNRFDEMQAWLEERGYTVETRRGDERLTHEGQVLGCNYASADVDADQILYVGGGKFHPLGLAMEHPDKKVIIADPVNNAVHVADTEQFMKQRYAAVHKAMDAEEWGVIFCTKIGQGRWDTAEEIVEANDNAYLITMDEVTPDRLTNFGFDAYVNTGCPRITTDDGPQFKQPMLTPGEYKIAIGEKPMDSLSFDTFHGTW | failed
19 | MSQRTSEENRYEQLHRFAAKIHSTMQIDDVLEEIICTLQNVYPAFTYHLLLSHDNHVCGNLPIKTLALDESEGQPAALRAFLTGQVQCEETAAPPRSVLYAPIKGVQAVYGVIQIIAPYAAPFPKREINFISLLAGTAGRALENAKLYEQSRRLEHHHHHH | not failed
